# Source: patent US20230048390A1 (Xencor, published 2023)
# T1: mouse CD20 (mouse, UniProt P19437 1-291, limits assumed)
# T1 construct: Named only as mouse CD20
# T1 sequence (looked up): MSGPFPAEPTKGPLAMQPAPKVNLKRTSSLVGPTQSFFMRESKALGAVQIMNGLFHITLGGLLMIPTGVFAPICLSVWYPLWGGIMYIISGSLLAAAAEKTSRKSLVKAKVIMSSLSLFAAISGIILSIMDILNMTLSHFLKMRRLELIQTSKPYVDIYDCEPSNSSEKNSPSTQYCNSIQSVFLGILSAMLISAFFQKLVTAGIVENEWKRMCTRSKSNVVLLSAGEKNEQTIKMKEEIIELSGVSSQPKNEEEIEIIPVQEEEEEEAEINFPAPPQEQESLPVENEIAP
# T2: human CD20 (human, UniProt P11836 1-297)
# T2 sequence (looked up): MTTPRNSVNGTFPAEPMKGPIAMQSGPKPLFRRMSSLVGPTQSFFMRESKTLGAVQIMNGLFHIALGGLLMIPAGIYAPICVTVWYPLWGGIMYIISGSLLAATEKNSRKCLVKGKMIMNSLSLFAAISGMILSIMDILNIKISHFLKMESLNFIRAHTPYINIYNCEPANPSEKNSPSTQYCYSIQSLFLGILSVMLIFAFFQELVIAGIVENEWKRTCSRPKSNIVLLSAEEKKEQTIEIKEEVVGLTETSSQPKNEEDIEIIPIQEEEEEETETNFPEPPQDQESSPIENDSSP
# Assays:
# mouse CD20 = target: T1, mouse CD20; assay: not described
# human CD20 = target: T2, human CD20; assay: cell-based or functional assay
binder,measurement,setting,value
"XmAb®13676 (XENP13676 Anti-CD20 × Anti-CD3 Fab-scFv-Fc) (bispecific antibody, The anti-CD20 Fv is derived from murine antibody C2B8; also called plamotamab) heavy: QVQLVQSGAEVKKPGASVKVSCKASGYTFTSYNMHWVRQAPGQGLEWMGAIYPGNGDTSYNQKFQGRVTITADKSISTAYMELSSLRSEDTAVYYCARSTYYGGDWYFNVWGAGTLVTVSSASTKGPSVFPLAPSSKSTSGGTAALGCLVKDYFPEPVTVSWNSGALTSGVHTFPAVLQSSGLYSLSSVVTVPSSSLGTQTYICNVNHKPSDTKVDKKVEPKSCDKTHTCPPCPAPPVAGPSVFLFPPKPKDTLMISRTPEVTCVVVDVKHEDPEVKFNWYVDGVEVHNAKTKPREEEYNSTYRVVSVLTVLHQDWLNGKEYKCKVSNKALPAPIEKTISKAKGQPREPQVYTLPPSREEMTKNQVSLTCDVSGFYPSDIAVEWESDGQPENNYKTTPPVLDSDGSFFLYSKLTVDKSRWEQGDVFSCSVMHEALHNHYTQKSLSLSPGK not shown light: QIVLTQSPSSLSASVGDRVTITCRASSSVSYIHWFQQKPGKSPKPLIYATSNLASGVPVRFSGSGSGTDYTLTISSLQPEDFATYYCQQWTSNPPTFGGGTKVEIKRTVAAPSVFIFPPSDEQLKSGTASVVCLLNNFYPREAKVQWKVDNALQSGNSQESVTEQDSKDSTYSLSSTLTLSKADYEKHKVYACEVTHQGLSSPVTKSFNRGEC",binding result,mouse CD20,no binding
same,EC50 of Jeko-1 target cell killing (RTCC) in the presence of 3 µg/ml rituximab,human CD20,0.051 µg/mL
same,EC50 of Jeko-1 target cell killing (RTCC) in the presence of 10 µg/ml rituximab,human CD20,0.093 µg/mL
same,EC50 of Jeko-1 target cell killing (RTCC) in the presence of 30 µg/ml rituximab,human CD20,0.162 µg/mL
same,EC50 of Jeko-1 target cell killing (RTCC) in the presence of 100 µg/ml rituximab,human CD20,0.387 µg/mL
same,"EC50 of Jeko-1 target cell killing (RTCC), no rituximab",human CD20,0.024 µg/mL
same,EC50 of RTCC against Ramos cells with purified T cells from six healthy donors,human CD20,0.0053 to 0.0143 µg/mL
